Article PMC9901791, “Structural insights into catalytical capability for CPT11 hydrolysis and substrate specificity of a novel marine microbial carboxylesterase, E93” (Frontiers in Microbiology, 2023)
Positions count from the first letter of the chain named. Numbers in names are those of the source.

Columns and labels:
[1] = substrate: CCc1c2c(nc3ccc(OC(=O)N4CCC(N)CC4)cc13)-c1cc3c(c(=O)n1C2)COC(=O)[C@]3(O)CC; test: purified protein; details: 5-200 uM substrate, 50 mM HEPES pH 7.4, 37 °C, 10 h
[2] = substrate: CCCC(=O)Oc1ccc([N+](=O)[O-])cc1; test: purified protein; type: biochemical, Altericroceibacterium indicum; details: Tris-HCl pH 7.5, 45 °C
[3] = substrate: CCCCCC(=O)Oc1ccc([N+](=O)[O-])cc1; test: purified protein; type: biochemical, Altericroceibacterium indicum; details: Tris-HCl pH 7.5, 45 °C
[4] = substrate: CCc1c2c(nc3ccc(OC(=O)N4CCC(N)CC4)cc13)-c1cc3c(c(=O)n1C2)COC(=O)[C@]3(O)CC; test: HPLC of SN38 formation; type: biochemical, Altericroceibacterium indicum; details: 5-200 uM substrate, 50 mM HEPES pH 7.4, 37 °C, 10 h
Excerpt: (§1) HPLC of SN38 formation on E93 | the kinetic parameters for the conversion of CPT11 and NPC were obtained from the HPLC

[5] = substrate: CCc1c2c(nc3ccc(OC(=O)N4CCC(N5CCCCC5)CC4)cc13)-c1cc3c(c(=O)n1C2)COC(=O)[C@]3(O)CC; test: HPLC of SN38 formation; type: biochemical, Altericroceibacterium indicum; details: pH 7.4; 37.0 °C
Excerpt: as §1

B1: E93 (Altericroceibacterium indicum; E428A) (protein)
chain: MARTRYGPVIGKVEQGALAFKGIPYGAPTSGSGRFMPPTPPQPWSTPLRAFDYGPTAPQSDPQDALESGAADARESEDCLTLNVWTPSLNDQRKRPVMVWLHGGGLWRLSAAGDYQAGTHLAAHSDVVMVSPNHRLNVLAHAYLDEYDPAFAGSSSAGMLDLVLALKWVRDNIEEFGGDPDNVTIFGQSGGGQKVSFLMAMPAAAGLFHKAIIQSGPAPLALEKPYARELSARLLTLLDIPKNRVRDIQNVPLDAIMRAYYQIFEELGGFGVMGVIQDFAPVVDDVALPQHPFWNGASPLSRDVPLMIGCTRTEMTEYFLASNPGAAKRDFAAVTAQLEPVFGMQAPAVVAHYRATHPTASPWEVDALIRSDWPTRLFTQRIADEQVKLGGAPVWMYRMDWQTTARDGLLMSPHAIDIPFVLDTVGTAPVEPGQLAEQQRMMQQMNNAWVSFARNGNPQNKYIPPWQPYNSTSRPTMIFNLHSHMANDPDGSDLAFLKKDLANLEVVAGGVTH
B1 was tested, and the Km [1] was 85.07 ± 9.4 µM and the kcat [1] was 23.80 ± 2.34 ×10^-3 min^-1.

B2: E93 (Altericroceibacterium indicum) (protein)
chain: B1 chain with A428E
notes: recombinant in E. coli BL21 (DE3), N-terminal His6-SUMO tag (pSMT3), Ni-NTA purified; 57 kDa; 510 residues modelled; catalytic triad S189, E314, H414
In the case of B2, the Km ([2]; 0.02-3.50 mM substrate) is reported as 210 ± 20 µM, the Km [3] is reported as 180 ± 11 µM and the Km [4] is reported as 75.66 ± 6.03 µM. For the same protein, the kcat [4] was 35.40 ± 1.70 ×10^-3 min^-1 and the Km [5] was 70.17 ± 7.07 µM.

B3: E93 (Altericroceibacterium indicum; T375A) (protein)
chain: B1 chain with T375A, A428E
notes: as for B2
In the case of B3, the Km [3] is reported as 130 ± 10 µM.

B4: E93 (Altericroceibacterium indicum; Q193A) (protein)
chain: B1 chain with Q193A, A428E
notes: as for B2
With B4 the Km [3] was 100 ± 10 µM.

B5: E93 (Altericroceibacterium indicum; Y318A) (protein)
chain: B1 chain with Y318A, A428E
For B5, the Km [1] was 55.47 ± 5.17 µM and the kcat [1] was 40.87 ± 3.07 ×10^-3 min^-1.

B6: E93 (Altericroceibacterium indicum; W107A) (protein)
chain: B1 chain with W107A, A428E
notes: as for B2
In the case of B6, the Km [3] is reported as 210 ± 18 µM.

B7: E93 (Altericroceibacterium indicum; T375I) (protein)
chain: B1 chain with T375I, A428E
notes: as for B2
B7 gave a Km [2] of 100 ± 10 µM and a Km [3] of 110 ± 10 µM.

B8: E93 (Altericroceibacterium indicum; M273A) (protein)
chain: B1 chain with M273A, A428E
notes: as for B2
B8 was tested, and the Km [3] was 390 ± 25 µM.
